Data taken from patent US20240251767A1.
pEC50, pKd: −log10 of the molar value. Like-named read-outs stand apart in the source and are kept apart here.

Tests used:
[1] = molecular target: SARS-Cov2 Spike Active Trimer SAT (R&D Systems; Catalog No. 10549-CV) (SARS-CoV2) (UniProt P0DTC2)
[2] = molecular target: SARS-CoV-2 Spike (S) protein with an inactivated furin site on HEK293-Spike cells (293-SARS2-S-dfur, (SARS-CoV-2) (UniProt P0DTC2))
[3] = molecular target: SARS-Cov2 Spike Active Trimer SAT (R&D Systems; Catalog No. 10549-CV) (SARS-CoV2) (UniProt P0DTC2); assay: SPR (Biacore)
[4] = molecular target: SARS-Cov2 Spike Active Trimer SAT (R&D Systems; Catalog No. 10549-CV) (SARS-CoV2) (UniProt P0DTC2); assay: SPR (Carterra)
[5] = molecular target: SARS-Cov2 Spike Active Trimer SAT (R&D Systems; Catalog No. 10549-CV) (SARS-CoV2) (UniProt P0DTC2); assay: ELISA, serially diluted purified Nb-Fc on SAT antigen
[6] = molecular target: SARS-Cov2 Spike Active Trimer SAT (R&D Systems; Catalog No. 10549-CV) (SARS-CoV2) (UniProt P0DTC2); remark: listed apart in the source

Q: “human SAT Nb-Fc control VH-Ab-8 (HAb8-S) (Fc fusion)” was tested. Which Response [1] did it give?
A: 0.489

Q: What about the koff [1] of the same substance?
A: 0.00294 s⁻¹

Q: What about the kon [1] of the same substance?
A: 149000 M⁻¹ s⁻¹

Q: What about the GMFI [2] of the same substance?
A: 430

Q: And the GMFI Ratio [2]?
A: 21.1

Q: What about the pKd [3] of the same substance?
A: 8.24

Q: And the pKd [4]?
A: 7.43

Q: And the pEC50 [5]?
A: 10.74

Q: And the pKd [6]?
A: 7.70
